B1: Bifunctional UDP-N-acetylglucosamine 2-epimerase/N-acetylmannosamine kinase (Homo sapiens), Q9Y223 (parent)
chain: MEKNGNNRKLRVCVATCNRADYSKLAPIMFGIKTEPEFFELDVVVLGSHLIDDYGNTYRMIEQDDFDINTRLHTIVRGEDEAAMVESVGLALVKLPDVLNRLKPDIMIVHGDRFDALALATSAALMNIRILHIEGGEVSGTIDDSIRHAITKLAHYHVCCTRSAEQHLISMCEDHDRILLAGCPSYDKLLSAKNKDYMSIIRMWLGDDVKSKDYIVALQHPVTTDIKHSIKMFELTLDALISFNKRTLVLFPNIDAGSKEMVRVMRKKGIEHHPNFRAVKHVPFDQFIQLVAHAGCMIGNSSCGVREVGAFGTPVINLGTRQIGRETGENVLHVRDADTQDKILQALHLQFGKQYPCSKIYGDGNAVPRILKFLKSIDLQEPLQKKFCFPPVKENISQDIDHILETLSALAVDLGGTNLRVAIVSMKGEIVKKYTQFNPKTYEERINLILQMCVEAAAEAVKLNCRILGVGISTGGRVNPREGIVLHSTKLIQEWNSVDLRTPLSDTLHLPVWVDNDGNCAALAERKFGQGKGLENFVTLITGTGIGGGIIHQHELIHGSSFCAAELGHLVVSLDGPDCSCGSHGCIEAYASGMALQREAKKLHDEDLLLVEGMSVPKDEAVGALHLIQAAKLGNAKAQSILRTAGTALGLGVVNILHTMNPSLVILSGVLASHYIHIVKDVIRQQALSSVQDVDVVVSDLVDPALLGAASMVLDYTTRRIY

Variants of: B1
Details: with actn1_human ACTN1, P12814
Chain of actn1_human ACTN1, P12814 (P12814 whole entry): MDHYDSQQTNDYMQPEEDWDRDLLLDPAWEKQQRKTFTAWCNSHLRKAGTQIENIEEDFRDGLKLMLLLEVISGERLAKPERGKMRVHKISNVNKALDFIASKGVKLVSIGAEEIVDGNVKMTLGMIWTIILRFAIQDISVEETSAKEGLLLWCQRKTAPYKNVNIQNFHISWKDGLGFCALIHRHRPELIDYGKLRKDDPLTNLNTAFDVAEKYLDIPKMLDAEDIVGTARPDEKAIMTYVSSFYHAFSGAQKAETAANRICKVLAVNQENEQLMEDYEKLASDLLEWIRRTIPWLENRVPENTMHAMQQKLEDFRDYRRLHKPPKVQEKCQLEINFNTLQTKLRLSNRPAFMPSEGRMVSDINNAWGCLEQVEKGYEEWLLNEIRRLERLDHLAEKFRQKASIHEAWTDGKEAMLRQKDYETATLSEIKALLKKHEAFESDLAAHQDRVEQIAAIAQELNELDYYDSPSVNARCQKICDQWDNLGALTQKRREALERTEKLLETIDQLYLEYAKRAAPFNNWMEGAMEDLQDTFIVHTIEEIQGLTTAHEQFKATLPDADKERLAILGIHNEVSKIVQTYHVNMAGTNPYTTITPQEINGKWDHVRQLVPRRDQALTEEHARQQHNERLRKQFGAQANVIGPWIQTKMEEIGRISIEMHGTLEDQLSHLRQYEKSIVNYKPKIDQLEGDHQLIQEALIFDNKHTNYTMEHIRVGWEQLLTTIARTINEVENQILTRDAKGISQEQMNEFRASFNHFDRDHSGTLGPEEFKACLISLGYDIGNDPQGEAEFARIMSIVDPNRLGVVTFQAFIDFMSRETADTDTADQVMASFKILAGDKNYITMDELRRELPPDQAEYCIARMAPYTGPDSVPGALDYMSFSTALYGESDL

Question: How did the “effect of a mutation on the interaction” value turn out when M712T was run?
Answer: The value was “with no effect”.
